Among the data in article PMC8800120 are K half and binding signal (fraction shifted) values, retold here.

Test in all cases: EMSA
For orientation: A gel shift assay detects complexes by their altered migration in electrophoresis.

The test system of data set [1] is alpha-synuclein (aSyn) (human). Conditions: EMSA: 11 mM Tris, 1 mM EDTA, 50 mM NaCl, pH 8.0-8.5, 20 min on ice then 30 min RT, mutants/deltaNAC: 4 ul protein in 20 mM Tris-HCl, 200 mM NaCl in 10 ul, 0.5% ….
For data set [2], the system named is phospho-S129 alpha-synuclein (pSyn) (human). Conditions: EMSA: 11 mM Tris, 1 mM EDTA, 50 mM NaCl, pH 8.0-8.5, 20 min on ice then 30 min RT, mutants/deltaNAC: 4 ul protein in 20 mM Tris-HCl, 200 mM NaCl in 10 ul, 0.5% ….
In the next data set the test system is aSyn E46K (human). Conditions: 1.4 uM protein, 1.3 nM DNA; EMSA: 11 mM Tris, 1 mM EDTA, 50 mM NaCl, pH 8.0-8.5, 20 min on ice then 30 min RT; mutants/deltaNAC: 4 ul protein in 20 mM Tris-HCl, 200 mM NaCl in 10 ul, 0.5% ….
In a further data set the test system is deltaNAC aSyn (human). Conditions: 1.4 uM protein, 1.3 nM DNA; EMSA: 11 mM Tris, 1 mM EDTA, 50 mM NaCl, pH 8.0-8.5, 20 min on ice then 30 min RT; mutants/deltaNAC: 4 ul protein in 20 mM Tris-HCl, 200 mM NaCl in 10 ul, 0.5% ….
In another data set the test system is aSyn A30P (human). Conditions: 1.4 uM protein, 1.3 nM DNA; EMSA: 11 mM Tris, 1 mM EDTA, 50 mM NaCl, pH 8.0-8.5, 20 min on ice then 30 min RT; mutants/deltaNAC: 4 ul protein in 20 mM Tris-HCl, 200 mM NaCl in 10 ul, 0.5% ….
Data set [3] concerns gamma-synuclein (gSyn) (human). Conditions: up to 57 uM protein, 4 nM DNA; EMSA: 11 mM Tris, 1 mM EDTA, 50 mM NaCl, pH 8.0-8.5, 20 min on ice then 30 min RT; mutants/deltaNAC: 4 ul protein in 20 mM Tris-HCl, 200 mM NaCl in 10 ul, 0.5% ….
The subject of another data set is aSyn A53T (human). Conditions: 1.4 uM protein, 1.3 nM DNA; EMSA: 11 mM Tris, 1 mM EDTA, 50 mM NaCl, pH 8.0-8.5, 20 min on ice then 30 min RT; mutants/deltaNAC: 4 ul protein in 20 mM Tris-HCl, 200 mM NaCl in 10 ul, 0.5% ….
The test system of data set [4] is beta-synuclein (bSyn) (human). Conditions: up to 57 uM protein, 4 nM DNA; EMSA: 11 mM Tris, 1 mM EDTA, 50 mM NaCl, pH 8.0-8.5, 20 min on ice then 30 min RT; mutants/deltaNAC: 4 ul protein in 20 mM Tris-HCl, 200 mM NaCl in 10 ul, 0.5% ….

Values joined by “and” are separate entries in the source; they are usually repeats but may differ in a detail not shown here. Equal values may be shown once.

As for 304 bp circular DNA (made with HMGB1), the K half in data set [1] (covalently closed circle) was 1610 nM.

As for 300 bp linear DNA, blunt, the binding signal (fraction shifted) is 0.857 in data set [1] and 0.607 in data set [2].

In turn, “304 bp circular DNA topoisomer (made with HMGB1)” registered a K half in data set [1] (covalently closed circle, topoisomer) of 1640 nM.

In the case of “300 bp linear DNA (ends not specified for the experiment)”, the binding signal (fraction shifted) in the data set with aSyn E46K (human) was 0.975; in the data set with deltaNAC aSyn (human), 1; in data set [1] (1.4 uM protein, 1.3 nM DNA, deltaNAC series), 0.597; in data set [1] (1.4 uM protein, 1.3 nM DNA, point mutant series) it was 0.55; in data set [1] (57 uM protein, 4 nM DNA, paralog series), 0.199; in data set [1] it was 1 and 0.997. In addition, the binding signal (fraction shifted) in the data set with aSyn A30P (human) is 0.27; in data set [3] it was 0; in the data set on aSyn A53T (human), 0.379; in data set [4], 0. Further, the K half in data set [1] (0.1 nM DNA) amounted to 273 nM; in data set [1] (6 nM DNA), 5850 nM; in data set [2] (0.1 nM DNA), 27.3 µM; in data set [2] (6 nM DNA), 32.5 µM.

500 bp DNA: the binding signal (fraction shifted) in data set [1] and in data set [2] was 1 throughout.

Turning to “300 bp linear DNA with 4-base 5' overhangs”, the binding signal (fraction shifted) in data set [1] was determined as 0.917; in data set [2], 0.573.

In the case of 300 bp DNA (length series), the binding signal (fraction shifted) worked out at 0.803 in data set [1] and 0.617 in data set [2].

Consider 300 bp DNA, 56% GC, for which the binding signal (fraction shifted) in data set [1] (57 uM aSyn) was determined as 0.81.

Take 400 bp DNA: the binding signal (fraction shifted) in data set [1] is 0.947; in data set [2], 0.927.

Consider 125 bp DNA, for which the binding signal (fraction shifted) stood at 0.327 in data set [1] and 0.007 in data set [2].

200 bp DNA: the binding signal (fraction shifted) worked out at 0.74 in data set [1] and 0.12 in data set [2].

As to 300 bp DNA, 67% GC, the binding signal (fraction shifted) in data set [1] (57 uM aSyn) came out at 0.693.
